B1: PfMSP10 region 1 (R1, D29-N188) (domain or fragment)
chain: DDIKNTSQKKITYDKYNKNKENMNNEKNDNKDNKDNIYNDNINNDNINNDNINNEDEYKFLSMKHYKDSLSNKLNNENDHMNYLIRKRKDNTQGSQHFNENIENNENVENNENIENNENNENIENIENNENNENNENIENNENNENNENSSIMNSESYNN
B2: recombinant ecto-PfMSP10 (D29-Q507) (domain or fragment)
chain: DDIKNTSQKKITYDKYNKNKENMNNEKNDNKDNKDNIYNDNINNDNINNDNINNEDEYKFLSMKHYKDSLSNKLNNENDHMNYLIRKRKDNTQGSQHFNENIENNENVENNENIENNENNENIENIENNENNENNENIENNENNENNENSSIMNSESYNNIINSNEHNEEQIKKKEEDLIEAFFPFILKKLDNESLSLDNKYDDYYNLPNDHNDTHKENSSDHNLLGYKLGNNLKSYLIEENDVSQKKTDDINESASSDSENIQEILSTDSNTSHLKERKNQKAPPGEHKPEVKNALLNSQVASPKGEDEKKSQPQHPLVNSGDQLQHPKEIDENAEKIRRTLLKESRDIKNTTAIIDETVYKFEQLIMKGRYYATAVRNFVIFKVNYICEYSKCGPNSRCYIVEKDKEQCRCRPNYIVDMSVNYFKCIPMKDMNCSKNNGGCDVNAECTIVEGAVKCQCSHLYFGDGVFCVKNSQTKQ

Assays:
[1] = target: ecto-PfGAMA (N25-G715) (P. falciparum); assay: SPR; Biacore X100, CM5 chip; PfGAMA as ligand, analyte in single-cycle kinetics at 0.16, 0.8, 4, 20 and 100 nM; global fit to a 1:1 binding model
[2] = target: recombinant ecto-PfGAMA (N25-G715) (P. falciparum)
[3] = target: recombinant ecto-PfGAMA (N25-G715) (P. falciparum); assay: SPR; Biacore X100, CM5 chip; recombinant PfGAMA as ligand, PfMSP10 protein as analyte; single-cycle kinetics at 0.16, 0.8, 4, 20 and 100 nM; global fitting in a 1:1 binding model

Molecule | Kd [1] [nM] | koff [1] [s⁻¹] | kon [1] [M⁻¹ s⁻¹] | GIA activity (growth inhibition of cultured P. falciparum parasites) of 20 mg/ml rabbit antibodies raised against PfMSP10 R1 [2] [%] | Kd [3] [nM]
PfMSP10 R1 (D29-N188) (domain or fragment) | 648 | 0.000355 | 548 | – | –
ecto-PfMSP10 (D29-Q507) (domain or fragment) | 99.7 | 0.0015 | 15000 | – | –
B1 | – | – | – | 11 | 650
B2 | – | – | – | – | 100

Source: paper PMC6880778
